These results are taken from patent US8461322B2, “Plant 1-deoxy-D-xylulose 5-phosphate reductoisomerase” (E I du Pont de Nemours and Company, priority 1998, dated 2013).

A short description of the assay: Recombinant DXR activity, non-radioactive kinetic assay (oxidation of NADPH monitored at 340 nm). In kind it is biochemical. Conditions: Ni-Agarose purified His-tagged protein expressed in E. coli, 100 mM Hepes pH 7.5, 1 mM MnCl2, NADPH, 0.3 mM DXP, room temperature. As for the experimental part: Recombinant His-tagged DXR proteins were purified from E. coli using Ni-Agarose. Recombinant DXR activity was measured using a non-radioactive kinetic assay (Kuzuyama et al. (1998) Tetrahedron Lett 39:7913-7916). The assay mixture contained the following: 100 mM Hepes (pH 7.5); 1 mM MnCl2; […] NADPH, DXR, and 0.3 mM 1-deoxy-D-xylulose […] (DXP). The final volume of the reaction mixture was 200 μl and the assay was initiated by adding the substrate. The assay was run at room temperature on a plate reader. The oxidation of NADPH was monitored at 340 nm. The DXR activity was determined from the slope of the kinetic curve.

B1: truncated rice His-DXR (SEQ ID NO:30): rice DXR protein in which the first fifty-one amino acids have been removed and replaced with a twenty amino acid His-tag (protein)
chain: MGSSHHHHHHSSGLVPRGSHMQQAPPPAWPGRAVVEPGRRSWDGPKPISIVGSTGSIGTQTLDIVAENPDKFRVVALAAGSNVTLLADQVKTFKPKLVAVRNESLVDELKEALADCDWKPEIIPGEQGVIEVARHPDAVTVVTGIVGCAGLKPTVAAIEAGKDIALANKETLIAGGPFVLPLAQKHKVKILPADSEHSAIFQCIQGLPEGALRRIILTASGGAFRDWPVDKLKEVKVADALKHPNWNMGKKITVDSATLFNKGLEVIEAHYLFGAEYDDIEIVIHPQSIIHSMIETQDSSVLAQLGWPDMRIPTLYTMSWPDRIYCSEVTWPRLDLCKLGSLTFKAPDNVKYPSMDLAYAAGRAGGTMTGVLSAANEKAVELFIDEKIGYLDIFKVVELTCDAHRNELVTRPSLEEIIHYDLWAREYAASLQPSTGLSPVPV
modifications: His-tag; His-tagged truncated rice 1-deoxy-D-xylulose 5-phosphate reductoisomerase
Regarding B1, the “DXR activity (oxidation of NADPH)” value was “no oxidation of NADPH was detected”.

B2: E. coli His-DXR: His-tagged E. coli 1-deoxy-D-xylulose 5-phosphate reductoisomerase (protein)
chain: MGSSHHHHHHSSGLVPRGSHMKQLTILGSTGSIGCSTLDVVRHNPEHFRVVALVAGKNVTRMVEQCLEFSPRYAVMDDEASAKLLKTMLQQQGSRTEVLSGQQAACDMAALEDVDQVMAAIVGAAGLLPTLAAIRAGKTILLANKESLVTCGRLFMDAVKQSKAQLLPVDSEHNAIFQSLPQPIQHNLGYADLEQNGVVSILLTGSGGPFRETPLRDLATMTPDQACRHPNWSMGRKISVDSATMMNKGLEYIEARWLFNASASQMEVLIHPQSVIHSMVRYQDGSVLAQLGEPDMRTPIAHTMAWPNRVNSGVKPLDFCKLSALTFAAPDYDRYPCLKLAMEAFEQGQAATTALNAANEITVAAFLAQQIRFTDIAALNLSVLEKMDMREPQCVDDVLSVDASAREVARKEVMRLAS
modifications: His tag; His-tagged E. coli 1-deoxy-D-xylulose 5-phosphate reductoisomerase
For the molecule B2, the “DXR activity (oxidation of NADPH)” value was “DXR activity was detected”.

B3: second truncated rice His-DXR (SEQ ID NO:31): rice DXR protein in which the first seventy-six amino acids have been removed and replaced with a twenty-one amino acid His-tag (protein)
chain: MGSSHHHHHHSSGLVPRGSHMKPISIVGSTGSIGTQTLDIVAENPDKFRVVALAAGSNVTLLADQVKTFKPKLVAVRNESLVDELKEALADCDWKPEIIPGEQGVIEVARHPDAVTVVTGIVGCAGLKPTVAAIEAGKDIALANKETLIAGGPFVLPLAQKHKVKILPADSEHSAIFQCIQGLPEGALRRIILTASGGAFRDWPVDKLKEVKVADALKHPNWNMGKKITVDSATLFNKGLEVIEAHYLFGAEYDDIEIVIHPQSIIHSMIETQDSSVLAQLGWPDMRIPTLYTMSWPDRIYCSEVTWPRLDLCKLGSLTFKAPDNVKYPSMDLAYAAGRAGGTMTGVLSAANEKAVELFIDEKIGYLDIFKVVELTCDAHRNELVTRPSLEEIIHYDLWAREYAASLQPSTGLSPVPV
modifications: His-tag; His-tagged truncated rice 1-deoxy-D-xylulose 5-phosphate reductoisomerase
As to B3, the “DXR activity (oxidation of NADPH)” value is “no oxidation of NADPH was detected”.

B4: Synechocystis His-DXR: His-tagged Synechocystis 1-deoxy-D-xylulose 5-phosphate reductoisomerase (protein)
chain: MGSSHHHHHHSSGLVPRGSHMVKRISILGSTGSIGTQTLDIVTHHPDAFQVVGLAAGGNVALLAQQVAEFRPEIVAIRQAEKLEDLKAAVAELTDYQPMYVVGEEGVVEVARYGDAESVVTGIVGCAGLLPTMAAIAAGKDIALANKETLIAGAPVVLPLVEKMGVKLLPADSEHSAIFQCLQGVPEGGLRRIILTASGGAFRDLPVERLPFVTVQDALKHPNWSMGQKITIDSATLMNKGLEVIEAHYLFGLDYDHIDIVIHPQSIIHSLIEVQDTSVLAQLGWPDMRLPLLYALSWPERIYTDWEPLDLVKAGSLSFREPDHDKYPCMQLAYGAGRAGGAMPAVLNAANEQAVALFLQEKISFLDIPRLIEKTCDLYVGQNTASPDLETILAADQWARRTVLENSACVATRP
modifications: His-tag; His-tagged Synechocystis 1-deoxy-D-xylulose 5-phosphate reductoisomerase
For B4, the “DXR activity (oxidation of NADPH)” value is on record as “DXR activity was detected”.
